Results reported in patent publication US20110065647A1.

Molecular target: rNaV1.3 channels (rat), P08104
Assay: cell-based or functional assay

Sequence of rNaV1.3 channels (rat), P08104 (P08104 whole entry): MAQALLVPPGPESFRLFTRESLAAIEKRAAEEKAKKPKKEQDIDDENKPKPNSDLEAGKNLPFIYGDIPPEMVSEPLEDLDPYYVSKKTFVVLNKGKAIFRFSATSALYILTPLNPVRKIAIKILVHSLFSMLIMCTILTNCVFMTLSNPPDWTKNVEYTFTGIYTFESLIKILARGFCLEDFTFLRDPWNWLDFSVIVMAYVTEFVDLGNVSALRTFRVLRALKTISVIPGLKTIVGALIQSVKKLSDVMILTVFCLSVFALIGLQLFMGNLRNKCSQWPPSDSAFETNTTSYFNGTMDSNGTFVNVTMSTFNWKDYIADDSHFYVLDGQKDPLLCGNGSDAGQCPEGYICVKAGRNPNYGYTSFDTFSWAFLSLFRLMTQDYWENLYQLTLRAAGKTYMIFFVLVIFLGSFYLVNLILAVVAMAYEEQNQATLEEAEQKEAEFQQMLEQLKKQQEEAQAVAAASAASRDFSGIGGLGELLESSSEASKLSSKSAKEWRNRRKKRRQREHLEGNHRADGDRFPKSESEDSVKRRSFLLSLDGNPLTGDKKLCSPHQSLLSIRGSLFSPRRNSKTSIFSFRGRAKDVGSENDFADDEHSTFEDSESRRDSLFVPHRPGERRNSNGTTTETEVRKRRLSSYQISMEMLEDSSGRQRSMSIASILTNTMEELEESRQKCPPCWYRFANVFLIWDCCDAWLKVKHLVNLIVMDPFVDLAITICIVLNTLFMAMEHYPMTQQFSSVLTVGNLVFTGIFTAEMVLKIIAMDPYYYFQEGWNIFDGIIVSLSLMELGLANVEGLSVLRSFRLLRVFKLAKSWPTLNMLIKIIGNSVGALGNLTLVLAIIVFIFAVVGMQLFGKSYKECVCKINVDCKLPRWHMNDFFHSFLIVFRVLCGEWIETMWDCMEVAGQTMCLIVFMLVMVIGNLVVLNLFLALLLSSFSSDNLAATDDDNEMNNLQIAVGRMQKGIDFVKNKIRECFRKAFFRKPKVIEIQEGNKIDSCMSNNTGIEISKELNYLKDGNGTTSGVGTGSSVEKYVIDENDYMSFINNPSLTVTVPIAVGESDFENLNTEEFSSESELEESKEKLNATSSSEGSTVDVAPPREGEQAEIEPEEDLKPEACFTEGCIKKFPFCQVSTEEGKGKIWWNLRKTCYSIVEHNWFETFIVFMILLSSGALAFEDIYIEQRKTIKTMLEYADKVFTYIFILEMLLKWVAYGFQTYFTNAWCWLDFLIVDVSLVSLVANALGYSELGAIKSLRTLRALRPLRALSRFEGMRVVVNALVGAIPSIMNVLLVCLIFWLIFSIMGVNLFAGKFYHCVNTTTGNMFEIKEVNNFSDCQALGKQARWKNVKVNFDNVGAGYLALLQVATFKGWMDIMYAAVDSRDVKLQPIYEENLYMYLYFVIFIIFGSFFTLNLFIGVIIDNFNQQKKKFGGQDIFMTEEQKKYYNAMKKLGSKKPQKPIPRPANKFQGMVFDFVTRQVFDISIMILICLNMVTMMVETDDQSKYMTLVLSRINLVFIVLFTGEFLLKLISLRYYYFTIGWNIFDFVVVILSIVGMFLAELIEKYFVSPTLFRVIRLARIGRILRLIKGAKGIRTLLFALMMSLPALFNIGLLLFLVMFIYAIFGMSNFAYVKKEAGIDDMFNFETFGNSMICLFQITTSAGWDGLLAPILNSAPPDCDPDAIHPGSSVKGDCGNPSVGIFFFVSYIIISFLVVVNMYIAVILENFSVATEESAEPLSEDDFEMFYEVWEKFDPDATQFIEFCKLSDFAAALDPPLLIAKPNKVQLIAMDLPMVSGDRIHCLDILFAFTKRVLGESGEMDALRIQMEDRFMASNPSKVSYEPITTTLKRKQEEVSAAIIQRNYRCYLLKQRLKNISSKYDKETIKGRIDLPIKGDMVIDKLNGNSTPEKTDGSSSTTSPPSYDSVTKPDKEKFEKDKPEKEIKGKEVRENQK

DCLGFMRKCIPDNDKCCRPNLVCSRTHKWCKYVF (modifications not checked) [Peptide E]
IC50 Nav1.3 (µM); inhibition of channel current, patch clamp: 0.31 µM
